Results reported in article PMC3936014 (Nature communications, 2014).
Read-outs that look alike come from different tables or passages of the source.

What was measured:
[1] = biological target: the molecule itself; assay: crystal structure
[2] = biological target: T1, TFAM (mature) (Homo sapiens, UniProt Q00059 43-246); assay: FRET DNA bending
T1 sequence: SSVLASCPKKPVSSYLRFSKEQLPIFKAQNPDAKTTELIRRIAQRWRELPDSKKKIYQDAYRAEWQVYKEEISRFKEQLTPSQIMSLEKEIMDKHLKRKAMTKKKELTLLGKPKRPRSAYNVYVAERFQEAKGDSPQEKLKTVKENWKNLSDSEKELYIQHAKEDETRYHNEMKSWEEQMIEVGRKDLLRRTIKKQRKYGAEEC

[3] = biological target: T2, TFAM (43-237) (Homo sapiens, UniProt Q00059 43-237); assay: X-ray crystallography
T2 sequence: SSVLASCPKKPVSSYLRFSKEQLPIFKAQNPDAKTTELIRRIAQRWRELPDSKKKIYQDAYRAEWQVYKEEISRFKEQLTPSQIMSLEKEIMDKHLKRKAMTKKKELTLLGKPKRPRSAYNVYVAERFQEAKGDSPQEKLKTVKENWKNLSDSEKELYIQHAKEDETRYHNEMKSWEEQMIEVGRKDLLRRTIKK

[4] = biological target: T2, TFAM (43-237); assay: X-ray crystallography; remark: listed apart in the source
[5] = biological target: T2, TFAM (43-237); assay: X-ray crystallography; remark: listed apart in the source

B1: TFAM (transcription factor A, mitochondrial) lacking the last 9 residues (43-237) (domain or fragment, human, UniProt Q00059 43-237, looked up)
chain: T2 sequence
Does B1 bind [1]?
Result: binds

B2: HSP1 22 bp FRET (dsDNA)
DNA 1: GGTTGGTTCGGGGTATGGGGTT
DNA 2: AACCCCATACCCCGAACCAACC
Does B2 bind [2]?
Result: binds

B3: nonspecific 22 bp FRET (dsDNA)
DNA 1: ATTCAACCAATAGCCCTGGCCG
DNA 2: CGGCCAGGGCTATTGGTTGAAT
Does B3 bind [2]?
Result: binds

B4: HSP1 22 bp (dsDNA)
DNA 1: GGTTGGTTCGGGGTATGGGGTT
DNA 2: AACCCCATACCCCGAACCAACC
Does B4 bind [3]?
Result: binds

B5: HSP1-Br 22 bp (dsDNA)
DNA 1: GGTTGGTTCGGGGTATGGGGTT
DNA 2: AACCCCATACCCCGAACCAACC
modifications: 5-bromo-dU replacing T at strand 1 position 4 (mtDNA 550)
Does B5 bind [4]?
Result: binds

B6: nonspecific 22 bp (ATPase6) (dsDNA)
DNA 1: ATTCAACCAATAGCCCTGGCCG
DNA 2: CGGCCAGGGCTATTGGTTGAAT
Does B6 bind [5]?
Result: binds

B7: LSP 28 bp FRET (dsDNA)
DNA 1: TGTTAGTTGGGGGGTGACTGTTAAAAGT
DNA 2: ACTTTTAACAGTCACCCCCCAACTAACA
Does B7 bind [2]?
Result: binds
